Experimental data published in patent US20230235013A1 (MABSOLVE, published 2023).
Where a chain is given by its changes, count along the chain named. Numbers in names are those of the source.

B1: anti-CD20 human IgG1 L234A/L235S/G236R (antibody)
heavy: not shown
light: QIVLSQSPAILSASPGEKVTMTCRASSSVSYIHWFQQKPGSSPKPWIYATSNLASGVPVRFSGSGSGTSYSLTISRVEAEDAATYYCQQWTSNPPTFGGGTKLEIKRTVAAPSVFIFPPSDEQLKSGTASVVCLLNNFYPREAKVQWKVDNALQSGNSQESVTEQDSKDSTYSLSSTLTLSKADYEKHKVYACEVTHQGLSSPVTKSFNRGEC
notes: also called 2-4; 1-14
B2: anti-CD20 human IgG1 L234T/L235K/G236R (antibody)
heavy: QVQLQQPGAELVKPGASVKMSCKASGYTFTSYNMHWVKQTPGRGLEWIGAIYPGNGDTSYNQKFKGKATLTADKSSSTAYMQLSSLTSEDSAVYYCARSTYYGGDWYFNVWGAGTTVTVSSASTKGPSVFPLAPSSKSTSGGTAALGCLVKDYFPEPVTVSWNSGALTSGVHTFPAVLQSSGLYSLSSVVTVPSSSLGTQTYICNVNHKPSNTKVDKKVEPKSCDKTHTCPPCPAPETKRGPSVFLFPPKPKDTLMISRTPEVTCVVVDVSHEDPEVKFNWYVDGVEVHNAKTKPREEQYNSTYRVVSVLTVLHQDWLNGKEYKCKVSNKALPAPIEKTISKAKGQPREPQVYTLPPSRDELTKNQVSLTCLVKGFYPSDIAVEWESNGQPENNYKTTPPVLDSDGSFFLYSKLTVDKSRWQQGNVFSCSVMHEALHNHYTQKSLSLSPGK
light: B1 light
notes: also called 2-58
B3: anti-CD20 human IgG1 L234D/L235K/G236R (antibody)
heavy: B2 heavy with T238D
light: B1 light
notes: also called 2-7; 1-23
B4: anti-CD20 human IgG1 L234T/L235R/G236R (antibody)
heavy: B2 heavy with K239R
light: B1 light
notes: also called 2-61
B5: anti-CD20 human IgG1 L234R/L235E/G236R (antibody)
heavy: B2 heavy with T238R, K239E
light: B1 light
notes: also called 2-37
B6: anti-CD20 human IgG1 L234T/L235Q/G236R (antibody)
heavy: B2 heavy with K239Q
light: B1 light
notes: also called 2-60
B7: anti-CD20 human IgG1 L234K/L235V/G236R (antibody)
heavy: B2 heavy with T238K, K239V
light: B1 light
notes: also called 2-26; 1-91
B8: anti-CD20 human IgG1 L234T/L235S/G236R (antibody)
heavy: B2 heavy with K239S
light: B1 light
notes: also called 2-62
B9: anti-CD20 human IgG1 L234S/L235R/G236R (antibody)
heavy: B2 heavy with T238S, K239R
light: B1 light
notes: also called 2-51
B10: anti-CD20 human IgG1 L234Q/L235V/G236R (antibody)
heavy: B2 heavy with T238Q, K239V
light: B1 light
B11: anti-CD20 human IgG1 L234R/L235H/G236R (antibody)
heavy: B2 heavy with T238R, K239H
light: B1 light
notes: also called 2-38
B12: anti-CD20 human IgG1 L234S/L235G/G236R (antibody)
heavy: B2 heavy with T238S, K239G
light: B1 light
notes: also called 2-47; 1-140
B13: anti-CD20 human IgG1 L234S/L235H/G236R (antibody)
heavy: B2 heavy with T238S, K239H
light: B1 light
notes: also called 2-48
B14: anti-CD20 human IgG1 L234R/L235R/G236R (antibody)
heavy: B2 heavy with T238R, K239R
light: B1 light
notes: also called 2-43
B15: anti-CD20 human IgG1 L234R/L235I/G236R (antibody)
heavy: B2 heavy with T238R, K239I
light: B1 light
notes: also called 2-39

biological target: T1, Histidine-tagged recombinant human FcγRI (CD64) (human, UniProt P12314 16-288, limits assumed); assay: SPR, His-FcγRI captured; Expt 3;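 also: biacore T200 SPR at 25 °C, Fc-variant antibodies at 100 µg/mL flowed 1 min over anti-His-captured FcγRI, signal taken just before injection end minus a buffer blank cycle; antibody analyte injected at 100 µg/mL for 1 min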
T1 construct: bought

In order of falling “Corrected response (RU)” value:
1. B5  4.6 RU
2. B2  4.5 RU
3. B6  4.5 RU
4. B10  4.5 RU
5. B13  3.9 RU
6. B12  3.7 RU
7. B4  3.5 RU
8. B7  3.1 RU
9. B8  2.5 RU
10. B1  2.4 RU
11. B11  2.3 RU
12. B3  1.8 RU
13. B9  1.6 RU

biological target: T1, Histidine-tagged recombinant human …; assay: SPR, His-FcγRI captured; Expt 1;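 also: SPR at 25 °C on anti-His antibody chip capturing FcγRI, Fc-variant antibodies injected at 100 µg/mL for 1 min, signal near end of injection minus buffer blank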
Description: (§1) Binding analysis was carried out by surface plasmon resonance at 25° C. using a Biacore® T200 instrument with Biacore® T200 control software. The sample compartment was held at 5° C. The running buffer (HBS-EP+) consisted of 0.01 M HEPES pH 7.4, containing 0.15 M NaCl, 3 mM EDTA, and 0.05% v/v Surfactant P20. Methods were run using the manufacturer's standard method wizards as described in the Biacore® T200 Instrument Handbook.
(§2) The cell was activated by treatment with EDC/NHS for 7 min. The antibody was diluted to 10 μg/mL in 10 mM sodium acetate pH 5.0 and injected for 7 min at 5 μL/min. The flow cell was deactivated by injection of 1M ethanolamine for 7 min. This process was repeated in the absence of anti-his antibody on a separate flow cell to generate a reference surface. […] Samples of purified antibodies comprising variant Fc regions (1 mg/mL in PBS) were diluted with running buffer to 100 μg/mL and were injected for 1 min at 30 μL/min and allowed to disassociate for 2 min. Between each cycle, the chip was regenerated by injection of 10 mM glycine pH 3.0 for 0.5 min at a flow rate of 30 μL/min and recharged with a fresh injection of FcγRI. At the beginning of each experiment, three blank cycles were run, with buffer alone being injected instead of test sample. The average SPR signal (relative to the reference cell) was measured in a window approximately 8 to 13 seconds before the injection of test sample (baseline) and approximately 3 to 8 seconds before the end of injection (response). The response of the third of the blank (buffer) samples was subtracted from the response of each test sample in order to allow for any dissociation of the bound FcγRI giving a corrected response for each test sample. The whole experiment was repeated three times with the test samples being analysed in different orders each time.

In order of rising “Corrected response (RU)” value:
1. B7  -1.7 RU
2. B3  -1.4 RU
3. B11  -1.2 RU
4. B9  -1.1 RU
5. B15  -0.8 RU
6. B14  -0.4 RU
7. B1  0 RU
8. B4  0.2 RU
9. B13  0.4 RU
10. B10  0.5 RU
11. B8  0.8 RU
12. B5  0.9 RU
13. B2  1.1 RU
14. B6  2.2 RU
15. B12  2.6 RU

biological target: T2, human FcγRIIIA (F158) (human, UniProt P08637 17-208); assay: SPR, FcγRIIIA captured; also: test concentration or dose not given here
T2 construct: bought; F158 allele
T2 sequence (P08637 17-208 limits assumed): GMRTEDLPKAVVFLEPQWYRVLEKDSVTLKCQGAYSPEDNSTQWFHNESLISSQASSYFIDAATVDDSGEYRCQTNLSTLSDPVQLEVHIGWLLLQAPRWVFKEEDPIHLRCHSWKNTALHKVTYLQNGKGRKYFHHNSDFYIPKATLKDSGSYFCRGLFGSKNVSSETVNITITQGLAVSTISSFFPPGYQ

In order of falling “Corrected response (RU)” value:
1. B14  10.2 RU
2. B1  6 RU
3. B7  5.5 RU
4. B10  4.7 RU
5. B5  4.6 RU
6. B11  3.9 RU
7. B4  3.8 RU
8. B12  3.8 RU
9. B3  3.7 RU
10. B13  3.7 RU
11. B2  3.5 RU
12. B6  3 RU
13. B15  2.7 RU
14. B8  2.5 RU
15. B9  2.4 RU

biological target: T1, Histidine-tagged recombinant human …; assay: SPR, His-FcγRI captured; Expt 2;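 also: biacore T200 SPR at 25 °C, Fc-variant antibodies at 100 µg/mL flowed 1 min over anti-His-captured receptor, signal read near injection end minus third buffer blank; antibody analyte injected at 100 µg/mL for 1 min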
Description: as §1, §2

In order of rising “Corrected response (RU)” value:
1. B1  -1.2 RU
2. B15  -0.2 RU
3. B3  0.1 RU
4. B7  0.4 RU
5. B11  0.7 RU
6. B8  0.9 RU
7. B13  1.1 RU
8. B4  1.6 RU
9. B5  1.8 RU
10. B14  1.8 RU
11. B6  2.3 RU
12. B2  2.4 RU
13. B10  2.5 RU

biological target: T1, Histidine-tagged recombinant human …; assay: SPR, His-FcγRI captured; mean;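 also: biacore T200 SPR at 25 °C, anti-His surface capturing FcγRI, Fc-variant antibodies injected at 100 µg/mL for 1 min, signal near injection end minus third buffer blank, three repeats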

In order of rising “Corrected response (RU), Mean” value:
1. B15  0.1 RU
2. B3  0.2 RU
3. B1  0.4 RU
4. B7  0.6 RU
5. B11  0.6 RU
6. B14  0.7 RU
7. B9  0.8 RU
8. B8  1.4 RU
9. B4  1.8 RU
10. B13  1.8 RU
11. B5  2.4 RU
12. B10  2.5 RU
13. B12  2.6 RU
14. B2  2.7 RU
15. B6  3 RU
